Experimental data reported in the DeepSol protein solubility set.

assay: soluble on expression in E. coli; label from the status in PepcDB or PDB records

| Sequence | soluble on expression in E. coli |
| --- | --- |
| MTNNQTLDILLDVYAYNHAFRIAKALPNIPKTALYLLEMLKERRELNLAFLAEHAAENRTIEDQYHCSLWLNQSLEDEQIANYILDLEVKVKNGAIIDFVRSVSPILYRLFLRLITSEIPNFKAYIFDTKNDQYDTWHFQAMLESDHEVFKAYLSQKQSRNVTTKSLADMLTLTSLPQEIKDLVFLLRHFEKAVRNPLAHLIKPFDEEELHRTTHFSSQAFLENIITLATFSGVIYRREPFYFDDMNAIIKKELSLWRQSIV | not soluble |
| MRNFDLIRLTEAQWHDRESAHQLRADRLTADHMKRRRAGISHPVYDFLFEYYPVRVAHMKKWHPGVGVGIEGNPPHSRWKGYTTIDDVTVVDVEALKKKRSSTLHYVSNLLKQTQLNPTHFDCFGLHEWAMVYQTSQPRHALPLRLGAQGSNKVVESHNIRCTHFDAFRFFTEPAVPLNFQVLTRENQPSCEQPGCLHAMMDLYKWSAKLGPLIPGDLWLDTFELAWDCRVLDMEASPYDCTDYGLGIVPIETAEGKAEYVRRQRELSERGQLLRQRLVAELDRIDRFTLTS | not soluble |
| SMSAGPWKMVVWDEDGFQGRRHEFTAECPSVLELGFETVRSLKVLSGAWVGFEHAGFQGQQYILERGEYPSWDAWGGNTAYPAERLTSFRPAACANHRDSRLTIFEQENFLGKKGELSDDYPSLQAMGWEGNEVGSFHVHSGAWVCSQFPGYRGFQYVLECDHHSGDYKHFREWGSHAPTFQVQSIRRIQQ | soluble |
| MGHHHHHHSHMATASPSVFLLMVNGQVESAQFPEYDDLYCKYCFVYGQDWAPTAGLEEGISQITSKSQDVRQALVWNFPIDVTFKSTNPYGWPQIVLSVYGPDVFGNDVVRGYGAVHVPFSPGRHKRTIPMFVPESTSKLQKFTSLCLVASSDLQAAPPTEDK | not soluble |
| MGHHHHHHSHMQQQETNLLANLTTNDARDNSKDFQNSKVGAAATSRDEGCNCPIIGEIVISCYWLFEIPPLISE | soluble |
| MGSDKIHHHHHHLITIENSKFKAGIAERGAELQSLVNKADNYEYVWTGDKTFWNRHAPILFPSIGKSNQDQYRLGAKTYPMSQHGFARDYDFDVSDKSDSAVTFTQHQNAETLKKFPFEYTLAVTYMLTDGGLSVHYTVTNDDSKSMPFALGFHPAFNVGLKADGSFDDYDLTVEPLNSPLQRFGIGPVPFRNGDVEDIPGAEGNRLPLTHDLLDGGLVILANSEIAKATLASPHHDHSITLDISDFPYLTIWSPEHKKAPFIAVEPFDGLPDQAGEPTDWYTKLGNTTLSAGANKQLALKVELH | not soluble |
| MSILVIGANGGVGSKLVSQLNEEHVDFTAGVRKEDQVKELENKGIKATLIDVEKNSINDLKNIFTDYDKVIFSVGSGGSTGADKTIIVDLDGAVKTIKASKEAGIKHYVMVSTYDSRREAFDASGDLKPYTIAKHYADDYLRTSDLNYTIVHPGSLTDDAGTGKIEADLYFDKAGSIPREDVATVLKEVVTSDGFNNQEFQILSGNHGVKDALKNYESLEHHHHHH | soluble |
| MSLSSVYTMKRIWLQKDKKAYQAWHELMEKAELQTTEALDYTVGIYDDTALIASGSLSGKTIKCVAVCKKYQSENLLTQLVVHLLEKLREENQLHSFLYTKPKNEQIFQSLGFQKVVANQEVLFMEQGKPDFADYLGYLTQHKKAGPASSIVMNANPFTKGHQYLVEKAAQESPHVYVFVLSEDKSLFSKEARFAMVQKGVAHLPNVTVLSTEDYLVSSATFPTYFLKEKAPLEVAAIQATLDATLFKERIAPILEIQQRYVGEEPYSEVTAVYNQAMQQVFGQTITLTIVPRLASDGELISATKVRKAMAEGDKETLKKFLPATSYQYLVEHKKLMREGGSHHHHHH | soluble |
| MGDIEGSSSAAQSAQPEETGETNADKTGFFTRIMDAFSSGESQQEPTLGGASAAPVPVPGILNLRRMRVEDVAIPTAEIVSVPLTVSKEELVHVFRDSGMTRIPVYENTLDTPLGFVHLKDFALTHGFNGNSTQFDLRSMLRPLLFVPPSMPIGVLLAKMQTERRHMALVIDEYGGVDGLLTIEDLIEQVVGEIEDEHDTDEAQTWVKERPGCYIAQARTPLDEFETEIGRSLTNHEDVDEEEIDTLGGLVFMLSGRVPARGEVVPHPDGVEFEVIDADPRRIKRLRVMIPDAAE | not soluble |
| MGSDKIHHHHHHMTNQTQSMALMVPQSSSSLEAYIHSAHNIPMLEANEEYELAKRLQETGDIQAAKQLIMSHLRFVIHVAKGYAGYGLPQADLIQEGNIGLMKAVKRFDPDVGVRLVSFAVHWIKAEIHEYVLKNWRIVKVATTKAQRKLFFNLRKAKKRLGWFSDEEVTMVAENLGVSKSDVTEMESRMAAQDPAFDLASDNDDDQDYAPVHYLEDHSSDIASQVENDNFEADNQTRLLAAIKTLDERSQHILQARWLDEEKTTLQELAATYQVSAERIRQLEKNAMNKLKGRMEM | not soluble |
| MAGEKFQKKGKEKWKEKVWYTVEAPPYLGSKEVSVALGEDSNSMVNRVVEVPISELTGNFKKSNEKALFRITNCEGTKCKTIFIGHYIGDDYIRRLVRRRKERIDIIEDVKTSDNSIITVKIVVVTDGKVTNTKKFQIRKVLTDFILNKGLSLPYSEFVRYLIGDDIYNDMISATKDIYPLKKIEVRKSELVSLSGISEIHAGSQNSGEEPVVQNLEHHHHHH | not soluble |
| MAKDIYKTFKRSVSGIVGGNNINGEGSSSPSTSAPQVKYRGGTGRTWIHPPDYLINGHVEYVARFLGCVETPKANGSDVAREAIHAIRFQRDLKRSEQTRETAKLQKVEIRISIDNVIIADIKTKAPMYTFPLGRISFCADDKDDKRMFSFIARAEGASGKPSCYAFTSEKLAEDITLTIGEAFDLAYKRFLDKNRTSLENQKQIYILKKKIVELETENQVLIERLAEALRANSKADYENTGPPIYPGLGPPALPLSPMPQGPPPNIPPSSIYSMPRANDLPPTEMAPTLPQISTSSNGASPSVSPASTSPSGPAPSIPPPRPPALAPPPPVAPRRNPVVSPKNSTAGLLDGLELGSAEPAKKAPSNIFDDSFDPRAGEKKSTAAEYNPFGADFLSGIQNGKEAPPSASAELLASEAIARLPKPESSSVPPKKTAAEYDAMINEVEKKLAAMSSGSFEFGQLQTGDLGGIEGESDYGTPSDRLNPKMMNLKQ | not soluble |
| MSRDTERYPVKHANSLWQIYKTVPFWKVVKNFVVIQLARYTPFVSVKNWLYRTFLKMDVGEKTAFALMVMPDIMFPERISVGRNSIIGYNTTILAHEYLIEEYRLGDVIIGDEVMVGANTTILPGVTIGDRAIIAAGTVVHKNVPPGAFVGGNPMQVIKQLEHHHHHH | not soluble |
| MGSDKIHHHHHHMTNYIEEYCAQIRRMGSAGLIAKPILVDQDGTYTMTYVPHEHLNLGARLVLVSTTPGHAHVRLAAAVTEELLQARTPGRVIQRENKRRVELGGQLIRPNLIRMLDHFRAPELVGLPHAAALWNEGFEQFQPLALLPCATTRRGLAFNGTLEDLLAAPMLRAAFEAHFLGALRQMRPDAFYIALGRTAWSGLRHAASRRLLAKHQLLGMMPVPARAGNMVRYFLREISANDLSPNDPVRHRVDWLDAAHTELMANVQKVRAANMPPEGPNYLIA | not soluble |
| MAVSATGFEGFEKRLEISFFETTDFLDPQGKSLRSLTKSQLDEILTPAECTIVSSLTNSFVDSYVLSESSLFVYPYKIIIKTCGTTKLLLSIPHILRLADSLCLTVKSVRYTRGSFIFPGAQSYPHRSFSEEVALLDDYFGKLNAGSKAFVMGGSDNNPQRWHVYSASSTEESAVCDKPVYTLEMCMTGLDNIKASVFFKTNSVSASEMTISSGIRNILPGSEICDFNFEPCGYSMNSIEGDAVSTIHVTPEDGFSYASFETVGYDLKALNFKELVDRVLVCFGPEEFSVAVHANLGTEVLASDCVADVNGYFSQERELEELGLGGSVLYQRFVKTVECCSPKSTLGFC | not soluble |
| MMICGVFCMYKERKRMTKKELALEYHKKGYNCTQAVACAFCGEFGVSEEEMYKIAEGFGLGMGMMDTCGALTGLFMLIGMKNSGGVEQAGKTKADTYKKTREYAAKFKEINGSVYCKELKGVETGKILAPCDKCILDAVELAEQFLKEN | not soluble |
